Laboratory results as given in article PMC6006217.

What was measured:
[1] = biological target: BGB-A317/IgG4_(S228P) (human); assay: SPR; Biacore, human PD-1/His immobilised on a CM5 chip; the antibody captured on the PD-1/His surface; FcγRI injected over it
[2] = biological target: FcγRI on HEK293/FcγRI cells (human) (UniProt P12314)

Sequence of BGB-A317/IgG4_(S228P) (human) (heavy, as listed by the source, chain 1 of 2): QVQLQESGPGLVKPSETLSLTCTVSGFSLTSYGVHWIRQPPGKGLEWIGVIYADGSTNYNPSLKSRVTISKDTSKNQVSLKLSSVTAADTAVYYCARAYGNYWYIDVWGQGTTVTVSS
Sequence of BGB-A317/IgG4_(S228P) (human) (light, as listed by the source, chain 2 of 2): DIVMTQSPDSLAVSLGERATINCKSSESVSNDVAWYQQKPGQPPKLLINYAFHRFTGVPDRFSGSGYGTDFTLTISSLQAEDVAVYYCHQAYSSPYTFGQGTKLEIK

Row | Ka [1] [M⁻¹] | Kd [1] [nM] | koff [1] [s⁻¹] | kon [1] [M⁻¹ s⁻¹] | IL-10 gene transcription (real-time PCR) in M2 macrophages seeded on PD-1-coated plates in the presence of the antibody, against huIgG baseline [2] [fold] | Substance
1 | 3.57e+08 | 2.8 | 0.00199 | 712000 | – | human FcγRI (from UniProt P12314 16-292) (receptor)
2 | – | – | – | – | < 5 | BGB-A317/IgG4_(S228P) (antibody)
